The target in assay [1] is T1, 37-51aa.
T1 construct: also called alpha-synuclein peptide 37-51
T1 peptide: {Biotin-Ahx}-VLYVGSKTKEGVVHG
Kind of assay: indirect ELISA on biotinylated 15-mer peptide (streptavidin plate), supernatant 1/100. On the technique in general: An ELISA detects its analyte on a solid surface through an enzyme-linked reagent.
Procedure: (§1) Epitope mapping for the antibodies derived from stable hybridoma clones was determined using an indirect ELISA on a library of 15-mer peptides covering the entire sequence of human alpha-synuclein from 1 to 140aa. […] Results are expressed as optical density (O.D.). Each bar represents data for an individual antibody.
(§2) Serum-free supernatants were harvested from stable hybridomas. The supernatants containing antibodies of interest were then screened by an indirect ELISA assay to determine epitopes. Epitopes were first determined using a library of 15-mer peptides covering the entire sequence of human alpha-synuclein protein, spanning amino acids (aa) 1-140 with 9aa offset and 6aa overlap. […] Briefly, streptavidin-coated ELISA plates were blocked overnight at 4° C. […] Plates were washed with PBS/0.05% Tween® 20 and then incubated with the hybridoma supernatants at 1/100 dilution for 1 hour at 25° C. […] After final wash, plates were incubated 2 hours at 25° C. with alkaline phosphatase substrate (p-nitrophenyl phosphate disodium hexahydrate; pNPP, S0942, Sigma) and read the absorbance optical density (O.D.) signal at 405 nm using an ELISA plate reader (Tecan, Switzerland).

Assay [2] addresses 28-42aa. The description is as above.
Procedure: as §1, §2
In assay [3] the target is T2, 91-105aa.
T2 construct: also called alpha-synuclein peptide 91-105
T2 peptide: {Biotin-Ahx}-ATGFVKKDQLGKNEE
Nature of the assay: 15-mer peptide ELISA.
Procedure: as §1, §2

In assay [4] the target is T3, 82-96aa.
T3 construct: also called alpha-synuclein peptide 82-96
T3 peptide: {Biotin-Ahx}-VEGAGSIAAATGFVK
Kind of assay: 15-mer peptide ELISA.
Procedure: as §1, §2

Assay [5] deals with T4, 1-15aa.
T4 construct: also called alpha-synuclein peptide 1-15
T4 peptide: {Biotin-Ahx}-MDVFMKGLSKAKEGV
Nature of the assay: 15-mer peptide ELISA.
Procedure: as §1, §2

The next assay has as its target T5, 109-123aa.
T5 peptide: {Biotin-Ahx}-QEGILEDMPVDPDNE
Kind of assay: 15-mer peptide ELISA.

In another assay the target is T6, 100-114aa.
T6 peptide: {Biotin-Ahx}-LGKNEEGAPQEGILE
Kind of assay: 15-mer peptide ELISA.

Assay [6] addresses T3, 82-96aa. Nature of the assay: 15-mer peptide ELISA.
Procedure: as §1, §2
The target in assay [7] is T2, 91-105aa. Kind of assay: indirect ELISA on biotinylated 15-mer peptide (streptavidin plate), supernatant 1/100.
Procedure: as §1, §2
The target in assay [8] is T4, 1-15aa. Described as above.
Procedure: as §1, §2
Another assay addresses alpha-synuclein fibrils (Homo sapiens (Human), UniProt P37840 1-140). Nature of the assay: SPR, mAb captured.
In assay [9] the target is human full-length alpha-synuclein (human, UniProt P37840 1-140). Kind of assay: SPR, mAb captured. (In general: In SPR one partner is held on a chip, and binding of the other changes the refractive index at the surface.)
Procedure: (§3) Immobilization levels were evaluated following ethanolamine capping (Bound) and finally following regeneration (Final). Non-covalent immobilization of alpha-synuclein antibodies was performed using a target immobilization method of 2000 response units (RU).
(§4) Binding affinity of alpha-synuclein antibodies to monomeric or fibrillar alpha-synuclein species was performed using a single-cycle kinetics method. […] A dissociation phase of 900 sec followed the final 50 nM injection. Regeneration of the sensor to the goat anti-mouse antibody layer was achieved using 3 regenerations of 10 mM Glycine pH 1.7. […] Regeneration of the sensor to the goat anti-mouse antibody layer was achieved using 3 regenerations of 10 mM Glycine pH 1.7. Results obtained from single-cycle kinetics were evaluated by Biacore T200 evaluation software with 1:1 binding homogenous Langmuir model (with a global Rmax) with Cycle 5 as a blank subtraction. The following kinetic parameters were obtained: on-rate (ka), off-rate (kd), affinity constant (KD, ratio of kd by ka), maximum response (Rmax), and goodness of fit (Chi2).
(§5) Non-covalent capture of the alpha-synuclein antibodies was performed in three separate runs.
Assay [10] has as its target T1, 37-51aa. Nature of the assay: 15-mer peptide ELISA.
Procedure: as §1, §2
For assay [11], the target named is 28-42aa. Kind of assay: 15-mer peptide ELISA.
Procedure: as §1, §2
For assay [12], the target named is T3, 82-96aa. Nature of the assay: indirect ELISA on biotinylated 15-mer peptide (streptavidin plate), supernatant 1/100.
Procedure: as §1, §2

Where no end group is shown, it is not given here. The star is where a group is joined. Biotin = O=C1N[C@H]2[C@H](CS[C@H]2CCCCC(=O)*)N1; Ahx = NCCCCCC(=O)O

Procedure for 100-114aa: as §1, §2
Procedure for 109-123aa: as §1, §2
Procedure for alpha-synuclein fibrils: as §3, §4, §5

B1: ACI-7087-4119E10-Ab2 (antibody, V domains shown)
VH: QVQLQQSGAELVRPGASVTLSCKASGYTFSDYEMNWVKQTPVHGLEWIGAIDPETGGTAYNQKFKGKAILTSDKSSSTAYMELRSLTSEDSAVYYCTRFLLIDFDYWGQGTTLTVSS
VL: DVLMTQTPLSLPVSLGDQASISCRSSQSIVHSNGNTYLEWYLKKAGQSPKVLIYKVSNRFSGVPDRFSGSGSGTDFTLKISRVEAEDLGVYYCFQGSHVPYTFGGGTELEIK
notes: mouse hybridoma mAb; also called 4119E10D12
For the molecule B1, the binding result with 37-51aa [1] is recorded as “binds”; in the assay with 28-42aa [2], “binds”; in the assay with 91-105aa [3] it was “no binding (tested: supernatant 1/100)”; in the assay with 82-96aa [4], “no binding (tested: supernatant 1/100)”; in the assay with 1-15aa [5], “no binding (tested: supernatant 1/100)”.

B2: ACI-8033-4F3-Ab1 (antibody, V domains shown)
VH: EVQLQQSGPELVKPGASVKISCKASGYTFTDYYMNWVKQSHGKSLEWIGDINPNTGTNSYNQKFKGRASLTVDKFSSAAYMELRSLTSEDSAVYYCARTGYGDPISSYYYALDYWGQGTSVTVSS
VL: DIVMSQSPSSLAVSAGEKVTMSCKSSQSLLNSRTRKNYLAWYQQKPGQSPKLLIYWASTRESGVPDRFTGSGSGTDFTLTISSVQAEDLAVYYCKQSYNLWTFGGGTKLEIK
notes: mouse hybridoma mAb; also called 917.4F3F4G6
With B2, the binding result with 109-123aa was “no binding (tested: supernatant 1/100)”; with 100-114aa, “no binding (tested: supernatant 1/100)”; with 82-96aa [6], “no binding (tested: supernatant 1/100)”; with 91-105aa [7], “binds”.

B3: ACI-7088-4303B6-Ab2 (antibody, V domains shown)
VH: EVQLQQSGPELVKPGASVKISCKASGYTFTDYYMNWVKQSHGKSLEWIGDINPNNGGTTYNQKFKDKATLTVDRSSSTAYMELRSLTSGDSAVYYCARSGYSGSRLYYAMDYWSQGSSVTVSS
VL: DIVMSQSPSSLAVSAREKVTMSCKSSQSLLNSRTRKNYLAWYQQKPGQSPKLLIFWASTRESGVPDRFTGSGSGTDFTLTISSVQAEDLAVYYCKQSYDLWTFGGGTKLEIK
notes: mouse hybridoma mAb; tied by the hybridoma code 4303B6C11; also called ACI-7088-4303B6-Ab1; 4303B6C11
A word on the Kd: it is the free concentration of one partner at which half of the binding sites on the other are occupied at equilibrium, for simple one-to-one binding. By koff is commonly meant the first-order rate constant of dissociation. In general, kon refers to a measure of how fast the partners come together. The low end stands for slower complex formation, the high end for faster complex formation. Regarding B3, the binding result in the assay with 1-15aa [8] is “binds”; with 91-105aa [3], “no binding (tested: supernatant 1/100)”; with 82-96aa [4] it was “no binding (tested: supernatant 1/100)”; with 37-51aa [10] it was “no binding (tested: supernatant 1/100)”; in the assay with 28-42aa [11], “no binding (tested: supernatant 1/100)”. Besides, the figures for the dissociation constant (Kd) (with alpha-synuclein fibrils; in assay [9]) were 9.5 nM and 78.5 nM, respectively. In addition, the results for the off-rate (koff) (in the assay with alpha-synuclein fibrils; in assay [9]) were 0.00013 s⁻¹ and 0.106 s⁻¹, respectively. In addition, the kon was 13700 M⁻¹ s⁻¹ with alpha-synuclein fibrils and 1.35e+06 M⁻¹ s⁻¹ in assay [9].

B4: ACI-8033-17F5-Ab1 (antibody, V domains shown)
VH: EVQLQQSGPELVKPGASVKISCKASGYTFTDYFMNWVKQSHGKSLEWIGDINPNIDVTNYNQKFKGKATLTVDKSSSTAYMELRSLTSEDSAVYYCARGRDYAMDFWGQGTSVTVSS
VL: DIVMSQSPSSLAVSAGEKVTMSCKSSQSLLNSRTRKNYLAWYQQKPGQSPKLLIYWASTRESGVPDRFTGSGSGTDFTLTISSVQAEDLAVYYCKQSYDLWTFGGGTKLEIK
notes: mouse hybridoma mAb; also called 917.17F5F5G9
Consider B4, for which the binding result with 109-123aa is “no binding (tested: supernatant 1/100)”; with 100-114aa it was “no binding (tested: supernatant 1/100)”; with 82-96aa [6] it was “no binding (tested: supernatant 1/100)”; with 91-105aa [7] it was “binds”.

B5: ACI-7088-4301D5-Ab2 (antibody, V domains shown)
VH: QVQLQQSGPELVRPGASVKISCKASGYRFTSYYIHWVKQRPGQGLEWIGWIYPGSDNTKHNDKFKGKATLTADTSSSTAYMQLSSLTSEDSAVYFCARDYDVGFGYWGQGTLVTVSS
VL: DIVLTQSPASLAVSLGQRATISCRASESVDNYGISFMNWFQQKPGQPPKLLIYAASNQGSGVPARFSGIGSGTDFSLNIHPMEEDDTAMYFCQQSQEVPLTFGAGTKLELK
notes: mouse hybridoma mAb; also called 4301D5B10
For B5, the binding result was “binds” with 37-51aa [1]; “binds” with 28-42aa [2]; “no binding (tested: supernatant 1/100)” with 91-105aa [3]; “no binding (tested: supernatant 1/100)” with 82-96aa [4]; “no binding (tested: supernatant 1/100)” with 1-15aa [5].

B6: ACI-7089-4417G6-Ab1 (antibody, V domains shown)
VH: QVQLQQSGAELVRPGASVTLSCKASGYTFTGYEMHWVKQTPVHGLEWIGAIDPETGGTAYIQKFKGKATLTADKSSSTAYMELRSLTSEDSAVYYCTRGWDYFDYWGQGTTLTVSA
VL: DVVMTQTPLSLPVSLGDQASISCRSSQSLLHSNGFTYLHWYLQKPGQSPKLLIYRVSNRFSGVPDRFSGSGSGTDFTLKISRVEAEDLGVYFCSQSTHVPYTFGGGTKLEIK
notes: mouse hybridoma mAb; also called 4417G6B12
With B6, the values for the Kd (with alpha-synuclein fibrils; in assay [9]) were 48.7 nM and 22.6 nM, respectively. The figures for the koff (with alpha-synuclein fibrils; in assay [9]) were 0.00874 s⁻¹ and 5.58 s⁻¹, respectively. Further, the kon was found to be 179000 M⁻¹ s⁻¹ with alpha-synuclein fibrils and 2.47e+08 M⁻¹ s⁻¹ in assay [9]. In addition, the binding result with 91-105aa [3], in the assay with 82-96aa [4], with 1-15aa [5] and in the assay with 28-42aa [11] was “no binding (tested: supernatant 1/100)” each time.

B7: ACI-8033-8C10-Ab1 (antibody, V domains shown)
VH: DVQLQESGPGLVKPSQSLSLTCSVTGQSITSGYYWNWIRQFPGNKLEWMGYISNDGSSKTNPSLTNRISVTRDTSKNQVFLKLKSVTTEDTATYYCVRGDQHWGQGTALTVSS
VL: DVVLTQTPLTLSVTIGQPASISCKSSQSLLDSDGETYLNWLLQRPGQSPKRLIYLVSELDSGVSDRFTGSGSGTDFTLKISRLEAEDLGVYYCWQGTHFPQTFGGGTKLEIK
notes: mouse hybridoma mAb; also called 917.8C10C6G3
For B7, the binding result with 109-123aa is recorded as “no binding (tested: supernatant 1/100)”; with 100-114aa it was “no binding (tested: supernatant 1/100)”; with 82-96aa [12] it was “binds”.

The values above are taken from patent US20220298231A1 (AC IMMUNE, published 2022).
